Experimental data taken from patent publication US20040086945A1, “Hairless protein-interacting partner complexes and methods thereto” (The Procter & Gamble Company, priority 2002, published 2004).
Each block holds one molecule with its values, some of them ahead of it.

Molecular target: T1, mouse HRt (hairless protein aa 490-1182) (Mus musculus, UniProt Q61645)
T1 construct: HR cDNA corresponding to the C-terminal half of HR protein (aa residues 490 to 1182, hereinafter HRt); expressed in transfected cells; host or cells: Saccharomyces cerevisiae PJ69-2A transformed with BD-HRt plasmid, mated with Y187 carrying the human brain cDNA library in pACT2
T1 sequence (Q61645 490-1182): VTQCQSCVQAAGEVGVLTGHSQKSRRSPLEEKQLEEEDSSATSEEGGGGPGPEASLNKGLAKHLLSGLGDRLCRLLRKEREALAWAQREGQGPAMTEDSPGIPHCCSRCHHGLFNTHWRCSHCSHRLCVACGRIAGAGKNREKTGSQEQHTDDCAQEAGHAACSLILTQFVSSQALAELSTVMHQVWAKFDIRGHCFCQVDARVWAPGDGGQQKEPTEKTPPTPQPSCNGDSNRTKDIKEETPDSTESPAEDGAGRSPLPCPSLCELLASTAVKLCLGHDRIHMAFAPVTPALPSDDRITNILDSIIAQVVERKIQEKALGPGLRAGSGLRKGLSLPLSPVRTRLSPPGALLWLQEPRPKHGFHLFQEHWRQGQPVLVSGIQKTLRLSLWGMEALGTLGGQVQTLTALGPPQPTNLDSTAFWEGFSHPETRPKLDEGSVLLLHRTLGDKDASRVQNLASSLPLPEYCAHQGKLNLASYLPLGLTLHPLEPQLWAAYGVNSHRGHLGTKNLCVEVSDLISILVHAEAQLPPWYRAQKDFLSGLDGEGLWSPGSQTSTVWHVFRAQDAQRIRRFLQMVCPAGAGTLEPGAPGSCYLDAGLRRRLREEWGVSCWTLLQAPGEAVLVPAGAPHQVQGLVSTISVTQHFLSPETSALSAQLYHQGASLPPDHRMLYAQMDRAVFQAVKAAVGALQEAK
Test: Yeast two-hybrid screen of BD-HRt against human brain cDNA library in AD vector, lacZ coloration on QDO-Xgal plates
Type: cell-based
Details: BD-HRt(mouse) x human brain cDNA library in AD-vector
From the text: The present example provides for Hairless Protein (HR) interacting partners (HR-IP) using the yeast two-hybrid technology. […] Yeast cells expressing BD-HRt are mated with yeast cells pretransformed with human brain cDNA library in the activation domain (AD) vector.
Cloning of HRt into GAL4 binding domain (BD) yeast two-hybrid (Y2H) vector: The HRt insert from pET32a-HRt is excised as an Eco RI-Xho I fragment (there is a unique Xho I site just adjacent to HRt insert) and inserted at the Eco RI-Sal I sites of Y2H-BD vector pGBKT7 (Catalog No. K1612-B; a component of Matchmaker two-hybrid System 3 (Catalog No. K1612-1) BD Biosciences Clontech, Palo Alto, Calif.) to obtain pGBKT7-HRt in which HRt is fused in-frame to GAL 4 DNA BD (this plasmid is also designated BD-HRt).
Pretransformed human brain […] cDNA Library Screen for HRt interaction partners: Pretransformed human brain […] high-complexity GAL4 cDNA library that has already been amplified and introduced into yeast strain Y187 (MATα) is used to screen for HRt interacting proteins. […] The library host strain Y187 provides a third reporter gene (lacZ) for optional quantification of signal strength. The protocol as described in Clontech user manual (PT3183-1) is used. Briefly, the library is mixed with PJ69-2A strain that has been transformed with the BD-HRt plasmid in YPD medium containing adenine hemisulfate (0.004%) and kanamycin (0.005%) and incubated for 20-24 h at 30° C. The next day, the mating mixture is plated on Leu, Trp, His TDO that selects for two-hybrid interactions, and then the positive clones are screened for growth on Leu, Trp, His, Ade QDO, which is a more stringent condition for interaction. Colonies that grew well on QDO are also screened for lacZ expression by streaking on QDO-Xgal plates. Based on a visual assessment of colonies for the intensity of blue color, the clones are classified into high (H), medium (M), low (L) or very low (VL) categories.
The positive clones are expected to contain an AD-IP (interacting partner) that interacts with BD-HRt. To characterize IP, the sequence of IP is determined and matched to the human genome database. For this purpose, total DNA is isolated from the positive clones and PCR amplified with […] AD LD (long distance)-insert screening amplimers (Catalog No.9103-1; BD Biosciences Clontech, PaloAlto, Calif.). Reaction is conducted in 50 μl volume for 35 cycles using the conditions recommended with the Advantage2 PCR kit (Catalog No. K1910-1; BD Biosciences Clontech, PaloAlto, Calif.).

Molecule: HUMFGF1A Human fibroblast growth factor (FGF) receptor-1 mRNA: interacting partner nucleic acid, homology in a 3'-untranslated region, GenBank M34641, SEQ ID NO:92
XGAL (rate and intensity of coloration of colonies on Xgal): VL (VL = Very Low blue in 10 days)

XGAL (rate and intensity of coloration of colonies on Xgal): M (M = Medium blue in 3-5 days)
Molecule: Human C11 protein: human HRt interacting partner, GenBank X81625, SEQ ID NO:20/21

XGAL (rate and intensity of coloration of colonies on Xgal): M (M = Medium blue in 3-5 days)
Molecule: Human Sphingolipid activator protein: human HRt interacting partner, GenBank M60255, SEQ ID NO:16/17 (PLPPPCLLPLPRPPLLPRLGRVVPLHPLQTSPVTGDCSRPRPRWMRWWTS; listed as Homo sapiens)

XGAL (rate and intensity of coloration of colonies on Xgal): L (L = Low blue in 5-7 days)
Molecule: Human Thy-1 glycoprotein: human HRt interacting partner, GenBank AF261093, SEQ ID NO:66/67

XGAL (rate and intensity of coloration of colonies on Xgal): M (M = Medium blue in 3-5 days)
Molecule: Human ankyrin repeat containing protein ASB-2: human HRt interacting partner, GenBank AF159164, SEQ ID NO:38/39

XGAL (rate and intensity of coloration of colonies on Xgal): L/VL
Molecule: Human cDNA FLJ20456 fis clone KAT05827: human HRt interacting partner, GenBank AK000463, SEQ ID NO:74/75

XGAL (rate and intensity of coloration of colonies on Xgal): L (L = Low blue in 5-7 days)
Molecule: Human cDNA: FLJ23187 fis, clone: LNG11989: human HRt interacting partner, GenBank AK026840, SEQ ID NO:78/79

XGAL (rate and intensity of coloration of colonies on Xgal): L (L = Low blue in 5-7 days)
Molecule: Human genomic region containing hypervariable mini satellites Chromosome 10[10q26.3]: human HRt interacting partner, GenBank AL096810, SEQ ID NO:64/65 (NMKNRMMWRVMTLEKTRVNIIQTHLLCLLLIQMK; listed as Homo sapiens)

XGAL (rate and intensity of coloration of colonies on Xgal): M (M = Medium blue in 3-5 days)
Molecule: Human hypothetical protein: human HRt interacting partner, GenBank BC006358, SEQ ID NO:34/35

Molecule: Human mRNA for C11ORF25 gene: interacting partner nucleic acid, homology in a 3'-untranslated region, GenBank AJ300461, SEQ ID NO:94 (DNA CTATTCGATGATGAAGATACCCCACCAAACCCA; listed as DNA, chemistry not fully specified; the letters are possibly those of the target site)
XGAL (rate and intensity of coloration of colonies on Xgal): VL (VL = Very Low blue in 10 days)

XGAL (rate and intensity of coloration of colonies on Xgal): L (L = Low blue in 5-7 days)
Molecule: Human pre-B cell colony enhancing factor (PBEF): human HRt interacting partner, GenBank U02020, SEQ ID NO:55

XGAL (rate and intensity of coloration of colonies on Xgal): M (M = Medium blue in 3-5 days)
Molecule: Human synuclein-beta: human HRt interacting partner, GenBank BC002902, SEQ ID NO:18/19 (FCPTPTATPCRNSPGVTSGGPRPCWARLMEVPQERTRTAWCSTPRLPSRSRSSASVMM; listed as Homo sapiens)

Molecule: Human tyrosine phosphatase type 1VA, member 2: human HRt interacting partner, GenBank U14603, SEQ ID NO:51/52
XGAL (rate and intensity of coloration of colonies on Xgal): L (L = Low blue in 5-7 days)

XGAL (rate and intensity of coloration of colonies on Xgal): L/VL
Molecule: Human ubiquitin: human HRt interacting partner, GenBank AR075562, SEQ ID NO:70/71 (EKFAPKKQGDGGKDLPTEAKKRAAEFCRGALC; listed as Homo sapiens)

XGAL (rate and intensity of coloration of colonies on Xgal): H/M
Molecule: Human ubiquitous receptor UR: human HRt interacting partner, GenBank E11456, SEQ ID NO:1/2

XGAL (rate and intensity of coloration of colonies on Xgal): H (H = Intense blue within 2-3 days)
B1: Human monocyte antigen CD14: human HRt interacting partner, GenBank M86511, SEQ ID NO:14/15 (protein, listed as Homo sapiens)
chain: KRINLISQTKRPDRNMSLSRACPCWNGLLTTIKNLELLLEIVTDKSQEGSQFVKGFGGIGGILRYRVDFQGMEYQGGDDEFFDLDDY

XGAL (rate and intensity of coloration of colonies on Xgal): M (M = Medium blue in 3-5 days)
B2: Human aldolase A: human HRt interacting partner, GenBank M11560, SEQ ID NO:26/27 (protein, listed as Homo sapiens)
chain: VSKAVEHINKTIAPALVSKKLNVTEQEKIDKLMIEMDGTENKSKFGANAILGVSLAVCKAGAVEKGVPLYRHIADLAGNSEVILPVPAFNVINGGFSCCNKLAMHEVHDPPSRCSKLQGSLRIGTE

XGAL (rate and intensity of coloration of colonies on Xgal): M (M = Medium blue in 3-5 days)
B3: Human CGI-106 protein: human HRt interacting partner, GenBank AF151864, SEQ ID NO:28/29 (protein, listed as Homo sapiens)
chain: DEDTEGFGVPRHDPLPDPLKVPPPLPDPSSICMVDPEMLPPKTARQTENVSRTRKPLARPNSRAAAPKATPVAAAKTKGLAGGDRASRPLSARSEPSEKGGRAPLSRKSSTPKTATRGPSGSASSRPGVSATPPKSPVYLDLAYLPSGSSAHLVDEEFFQRVRALCYVISGQDQRKEEGMRAVLDALLASKQHWDRDLQVTLIPTFDSVAMHTWYAETHAR

XGAL (rate and intensity of coloration of colonies on Xgal): M (M = Medium blue in 3-5 days)
B4: Human small intestine cDNA to mRNA clone HSI10987: human HRt interacting partner, GenBank AK026339, SEQ ID NO:24/25 (protein, listed as Homo sapiens)
chain: CPGRSQGPHCWDAGCSGAPQAQVPSVFSFDFAAVLVLLLYPQELTWTQILGPPWSASSSAFGSGKNSSRTFYSQRQSLSFLCPICISSRRDPP

XGAL (rate and intensity of coloration of colonies on Xgal): H (H = Intense blue within 2-3 days)
B5: Human sequence from clone RP4-753, chromosome 21q: human HRt interacting partner, GenBank AL031676, SEQ ID NO:12/13 (protein, listed as Homo sapiens)
chain: TRSSFRSEATPSEPVLVSVHLSVLPARVQPRGMDRARVAVAAGSLAPPVLPPPIQRLRGCSMFYVFLNEDPSDGSSPIPDSGSPSGPRAAPEHPARLPLT

XGAL (rate and intensity of coloration of colonies on Xgal): M (M = Medium blue in 3-5 days)
B6: Human vesicle-associated membrane protein 2: human HRt interacting partner, GenBank BC002737, SEQ ID NO:22/23 (protein, listed as Homo sapiens)
chain: QGEGKGDGTGSYREGQGPRQQGGHQEAAAAATVCVASLPPPQHPRQLGLAPLPSLHCTLSLKINFQPCLLSTWWVVGMQFGICSTPST
